In patent publication US9610323B2, “Model systems and treatment regimes for treatment of neurological disease” (NoNO Inc., priority 2009, dated 2017):
Like-named read-outs stand apart in the source and are kept apart here. Square brackets hold non-standard residues; d marks the D form. Ends that are not written are not given here.

Columns and labels:
[1] = molecular target: binding of NMDAR 2B to PSD95 (Homo sapiens, UniProt P78352); conditions: reported by Bach; cited from earlier work
[2] = system: embolic stroke; assay: Primate model of ischemic stroke (twenty 100-micron polystyrene spheres into an intracerebral vessel; MRI brain analysis); type: in vivo, macaques; conditions: 2.6 mg/kg one hour after spheres
Experimental: The following example was performed on ten macaques divided into five test subjects and five controls. Each animal was put through the protocol twice with test animals in the first round serving as controls in the second round and vice versa.
Twenty 100-micron polystyrene spheres were delivered into an intracerebral vessel of each animal to induce embolic stroke. One hour after introducing the sphere, the animals were treated with Tat-NR2B9c (2.6 mg/kg) or vehicle control. The animals were then subject to MRI brain analysis and neurological examination at 4 hr, 24 hr and 14 days after introduction of the spheres.
After 14-28 days, the procedure was repeated with test animals serving as controls and vice versa.

[3] = system: permanent pial vessel occlusion (P3VO) stroke; assay: Rat model of stroke, permanent pial vessel occlusion of 3 terminal branches of the Middle Cerebral Artery (P3VO); type: in vivo, Sprague Dawley rats; conditions: 7.6 mg/kg i.v. after vessel occlusion, 5 min infusion
Experimental: Different infusion times were also compared for efficacy in a rat model of stroke in which adult Sprague Dawley rats (10-12 weeks old) (males˜300 g, females˜250 g) were fasted for 12-18 hours before being subjected to permanent pial vessel occlusion of 3 terminal branches of the Middle Cerebral Artery over the Whisker Barrel Cortex (P3VO). The protocol for analysis of this rat model has been described in WO/2008/008348. Tat-NR2B9c was administered at 7.6 mg/kg i.v. after vessel occlusion in comparison with vehicle. Two periods of infusion were compared, 5 min and 1 hour.

[4] = Experimental: For use such a composition is thawed and diluted into a larger volume of normal saline for infusion into a blood vessel. Another composition can be made by lyophilizing the chimeric agent Tat-NR2B9c at a concentration of 1-50 mg/ml in normal saline in the presence or absence of excipients. Such excipients can include those to increase stability or inhibit bacterial, viral or other pathogen growth that could degrade the drug. […] The lyophilized composition can be reconstituted in normal saline.
[5] = 50 mg/kg
Experimental: Tat-NR2B9c was administered to rats at 50 mg/kg and infusion times of 3 min or 60 min.

[6] = for subjects with histamine levels greater than 10 nmol/L: 3.75 mg/kg dose group; for maximum histamine level / average histamine level: 3.75 mg/kg; for average histamine level: subjects with levels greater than 10 nmol/L
Experimental: We carried out a Safety, Tolerability and Pharmacokinetic Study of Tat-NR2B9c in humans. Subjects were either normal, healthy, non-smoking males or post-menopausal or surgically sterile female subjects with a minimum age of 18 years. The subjects were either administered Tat-NR2B9c, Lot #: 124-134-001B, or were given placebo (Phosphate Buffered Saline), Lot #: 124-134-001A, administered as an intravenous infusion (10±1 minutes). Four subjects were dosed in each of Cohorts 1 to 3, and 10 subjects were dosed in each of Cohorts 4 to 8.
During the study period, 11 blood samples were collected for pharmacokinetic analysis from each subject at the following timepoints: 0.00 (pre-dose), 0.08 (5 minutes), 0.17 to 0.25 (10 to 15 minutes, precisely at the end of each individual drug infusion), 0.33 (20 minutes), 0.50, 0.75, 1.00, 2.00, 6.00, 12.00, and 24.00 hours post-dose. In addition, 8 blood samples were collected for histamine analysis from each subject at the following timepoints: 0.00 (pre-dose), and at 0.08 (5 minutes), 0.17 (10 minutes), 0.25, 0.50, 1.00, 2.00, and 24.00 hours post-dose.
The safety assessment was performed on all subjects who received at least 1 dose during the course of the study. The incidents of all adverse events (AEs) were tabulated by treatment and subject number. Absolute values for vital signs, electrocardiogram (ECG) parameters, laboratory parameters and physical examinations were also documented and values outside the normal range were flagged. Shifts from baseline values were tabulated. AEs were documented using investigator and Medical Dictionary for Regulatory Activities (MedDRA) terms.

[7] = high dose groups, rats
[8] = high dose groups, dogs
[9] = high dose groups, primates
[10] = system: cerebral ischemia; conditions: reported in WO 2008/014917; cited from earlier work
[11] = cortex compared with whole brain

Sequence of binding of NMDAR 2B to PSD95 (P78352 61-249 limits assumed): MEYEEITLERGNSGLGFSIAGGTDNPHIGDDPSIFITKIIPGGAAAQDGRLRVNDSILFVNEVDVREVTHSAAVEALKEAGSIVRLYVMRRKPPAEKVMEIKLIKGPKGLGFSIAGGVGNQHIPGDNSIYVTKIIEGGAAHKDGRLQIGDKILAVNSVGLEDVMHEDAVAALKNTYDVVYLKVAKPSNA

For “IESDV (synthetic pentamer peptide from the C-terminus of NMDAR 2B) [pentamer peptide from the C-terminus of NMDAR 2B, reported by Bach]”, the “inhibiting binding of NMDAR 2B to PSD95” value [1] is given as “effective”.
In the case of YGRKKRRQRRRKLSSIESDV [Tat-NR2B9c], the “reduction of number of infarctions in the cortex” value [2, 11] is reported as “even greater”, the “reduction of volumes of infarctions in the cortex” value [2, 11] is reported as “even greater” and the “number of MRI-visible infarctions in the whole brain” value ([2]; vs vehicle control) is reported as “significantly reduced”. For the same substance, the “volume of MRI-visible infarctions in the whole brain” value ([2]; vs vehicle control) was “significantly reduced”, the “infarction size 24 hr post treatment relative to saline placebo” value [3] was “significantly reduced” and the “stability of lyophilized composition” value ([4]; lyophilized from 1-50 mg/ml in normal saline, −20° C. or room temperature) was “stable”. The “stability (degradation or aggregation of the peptide) when stored frozen” value ([4]; normal saline, 10-30 mg/ml, stored frozen, two or more years) was “stable”, the “decrease in blood pressure” value ([5]; infusion over 3 min) was “about 50%” and the “period of recovery of blood pressure” value ([5]; infusion over 3 min) was 90 min. The “recovery of blood pressure” value ([5]; infusion over an hour (60 min)) was “recovered over a period of hour”, the “reduction in blood pressure” value ([5]; infusion over an hour (60 min)) was “only a slight reduction” and the “subjects with an elevated histamine level” value ([6]; 0.375 mg/kg dose group, 1 timepoint, 2.00 hours post dose) was 1 subject. For the same substance, the “subjects with histamine levels greater than 10 nmol/L” value ([6]; 10 minutes after start of administration) was 7 of the 8, the “subjects with histamine levels greater than 10 nmol/L” value ([6]; 10 minutes after start of administration, listed as NA 1) was “Seven of 8” and the “subjects with histamine levels greater than 10 nmol/L” value ([6]; 15 minutes after start of administration) was 3 subjects. The maximum histamine level ([6]; 10 minutes after start) was 39.8 nmol/L, the average histamine level ([6]; 10 minutes after start) was 24.3 nmol/L and the maximum histamine level ([6]; 15 minutes after start) was 20.3 nmol/L. For the same substance, the average histamine level ([6]; 15 minutes after start) was 15.3 nmol/L, the “AE dry mouth, incidence” value ([6]; 9/46 subjects receiving drug) was 19.6% and the “AE flushing, incidence” value ([6]; 10/46 subjects receiving drug) was 21.7%. For the same substance, the “AE pruritis, incidence” value ([6]; 12/46 subjects receiving drug) was 26.1%, the “AE feeling hot, incidence” value ([6]; 13/46 subjects receiving drug) was 28.3% and the “active treatment subjects who experienced at least 1 AE” value ([6]; 34 of 46 active treatment subjects, all doses) was 73.9%. The “time for abnormal histamine results to return to the normal range” value ([6]; after drug administration) was ≤ 24.00 h, the “Serious Adverse Events (SAEs)” value ([6]; all dose groups) was “No Serious Adverse Events (SAEs) were reported” and the “AEs at doses ≧2.60 mg/kg (decreased blood pressure, paraesthesia, hypoaesthesia, erythema, rash, pruritus, dry mouth, nausea, feeling hot, flushing)” value ([6]; doses ≧2.60 mg/kg) was “several AEs were frequently reported”. For the same substance, the “abnormal levels of histamine” value ([6]; treatment groups other than 3.75 mg/kg) was “no treatment group had significant abnormal levels of histamine”, the histamine levels [7] was “elevated histamine levels were observed” and the histamine levels [8] was “elevated histamine levels were observed”. For the same substance, the histamine levels [9] was “elevated histamine levels were observed”.
For “vdseisslk-rrrqrrkkrgyin ([dV][dD][dS][dE][dI][dS][dS][dL][dK][dR][dR][dR][dQ][dR][dR][dK][dK][dR]G[dY][dI][dN]; also: retro-inverso) [retro-inverso analog of Tat-NR2B9c, retro-inverso analog of Tat-NR2B9c described in WO 2008/014917]”, the inhibiting cerebral ischemia [10] is listed as “effective”.
